Laboratory results taken from publication PMC10798635.
pKd: −log10 of the molar value.

Tests used:
Conditions in all cases: room temperature 30-45 min, BLI: 20 mM Tris-HCl pH 7.4, 80 mM NaCl, 20 mM KCl, 1 mM DTT
[1] = tested on: Hantavirus nucleocapsid protein (NP), wild type (Sin Nombre virus); assay: filter binding
[2] = tested on: Hantavirus nucleocapsid protein (NP), wild type (Sin Nombre virus); assay: filter binding; remark: listed apart in the source
[3] = tested on: Hantavirus nucleocapsid protein (NP), wild type (Sin Nombre virus); assay: filter binding; remark: listed apart in the source
[4] = tested on: Hantavirus nucleocapsid protein (NP), wild type (Sin Nombre virus); assay: filter binding; remark: listed apart in the source
[5] = tested on: Hantavirus nucleocapsid protein (NP), wild type (Sin Nombre virus); assay: BLI

Row | Substance | pKd [1] | pKd [2] | pKd [3] | pKd [4] | pKd [5]
1 | Mutant 1 (VCP 5' UTR nt 1-542) | 7.37 | – | – | – | –
2 | Mutant 2 (VCP 5' UTR nt 542-988) | 5.72 | 5.80 | – | – | –
3 | Mutant 3 (mutant 1 lacking nt 530-542) | 5.62 | – | 5.62 | – | –
4 | Mutant 4 (wild type UTR lacking nt 530-542) | 5.41 | – | – | 5.85 | –
5 | VCP mRNA 5' UTR wild type | 7.33 | – | – | – | 7.60
